We go through one molecule from article PMC3973348, “Structural integrity of the PCI domain of eIF3a/TIF32 is required for mRNA recruitment to the 43S pre-initiation complexes” (Nucleic Acids Research, 2014).

The test has as its target T1, eIF3c/NIP1 (S. cerevisiae, UniProt P32497 1-812).
T1 construct: eIF3c/NIP1 subunit of yeast eIF3; 50 ug = 0.5 nmol (about 100 kDa) fits a whole protein (surmise); source: purified
The test can be described thus: ITC; VP-ITC; 100 uM a/TIF32^276-494 injected in 20 ul aliquots into the cell with 10 uM c/NIP1; 150 mM KCl, 10 mM Hepes pH 7.5, 5% glycerol. Conditions: both partners purified. For orientation: Isothermal titration calorimetry measures the heat released or taken up as one component is titrated into another.

T1 sequence (P32497 whole entry): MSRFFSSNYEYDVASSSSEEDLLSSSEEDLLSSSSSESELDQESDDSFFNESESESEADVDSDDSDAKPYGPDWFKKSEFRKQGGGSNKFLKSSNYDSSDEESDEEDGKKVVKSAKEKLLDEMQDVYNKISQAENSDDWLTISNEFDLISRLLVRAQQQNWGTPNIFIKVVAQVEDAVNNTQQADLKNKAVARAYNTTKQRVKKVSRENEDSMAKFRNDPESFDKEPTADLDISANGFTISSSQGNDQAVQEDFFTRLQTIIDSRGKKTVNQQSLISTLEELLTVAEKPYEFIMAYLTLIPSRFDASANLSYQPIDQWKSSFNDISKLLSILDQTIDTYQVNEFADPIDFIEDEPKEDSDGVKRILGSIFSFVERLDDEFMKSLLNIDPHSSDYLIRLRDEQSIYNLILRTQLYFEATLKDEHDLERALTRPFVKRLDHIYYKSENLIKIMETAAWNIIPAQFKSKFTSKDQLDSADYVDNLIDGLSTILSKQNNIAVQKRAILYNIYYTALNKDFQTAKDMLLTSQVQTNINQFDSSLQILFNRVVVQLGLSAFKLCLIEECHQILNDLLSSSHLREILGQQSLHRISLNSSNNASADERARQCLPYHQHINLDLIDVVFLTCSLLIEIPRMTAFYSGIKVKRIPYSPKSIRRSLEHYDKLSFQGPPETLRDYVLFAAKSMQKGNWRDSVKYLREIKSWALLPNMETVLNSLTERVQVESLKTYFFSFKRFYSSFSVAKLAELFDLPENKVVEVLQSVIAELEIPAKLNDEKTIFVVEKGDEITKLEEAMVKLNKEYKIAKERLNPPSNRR

B1: a/TIF32^276-494 (PCI domain of eIF3a/TIF32) (domain or fragment, S. cerevisiae, UniProt P38249 276-494, looked up)
chain: PSTLANYYENLVKVFFVSGDPLLHTTAWKKFYKLYSTNPRATEEEFKTYSSTIFLSAISTQLDEIPSIGYDPHLRMYRLLNLDAKPTRKEMLQSIIEDESIYGKVDEELKELYDIIEVNFDVDTVKQQLENLLVKLSSKTYFSQYIAPLRDVIMRRVFVAASQKFTTVSQSELYKLATLPAPLDLSAWDIEKSLLQAAVEDYVSITIDHESAKVTFAKD
notes: Detailed purification scheme is in Supplementary Methods; also called a/TIF32-PCI; a/TIF32 PCI domain
In general, Kd refers to the free concentration of one partner at which half of the binding sites on the other are occupied at equilibrium, for simple one-to-one binding. A lower Kd goes with higher affinity. The term stoichiometry N denotes a count of units in the complex or per binding partner. On to B1, for which the affinity, expressed as Kd, was 158 nM; the dH was -10.2 kcal/mol; the “stoichiometry N” value turned out to be 0.944.
